No end group written: not given here.
T1: human TREM2 on the cell surface (human, UniProt Q9NZC2 19-230)
T1 construct: also called surface TREM2; TREM2 expressed in HEK293-H6 cells
T1 sequence: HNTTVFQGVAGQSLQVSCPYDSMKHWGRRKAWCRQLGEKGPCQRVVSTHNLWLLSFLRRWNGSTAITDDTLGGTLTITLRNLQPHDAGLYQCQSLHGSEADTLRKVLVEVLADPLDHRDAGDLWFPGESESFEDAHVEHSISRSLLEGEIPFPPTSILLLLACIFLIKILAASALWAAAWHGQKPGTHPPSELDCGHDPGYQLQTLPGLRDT

T2: human TREM2 full length stalk region peptide (aa 129-172) (human, biotinylated (site not stated))
T2 construct: also called Human TREM2 peptide (aa 129-172); full-length TREM2 stalk peptide
T2 peptide: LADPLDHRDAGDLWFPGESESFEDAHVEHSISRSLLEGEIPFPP

T3: mouse TREM2 full length stalk region peptide (aa 131-169) (mouse, UniProt Q99NH8 131-169, biotinylated (site not stated))
T3 peptide (looked up): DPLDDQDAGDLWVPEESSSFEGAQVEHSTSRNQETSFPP

T4: human TREM2 truncated stalk peptide (aa 149-163) (human, also: biotinylated (site not given here))
T4 construct: also called Human TREM2 peptide (aa 149-163); truncated stalk peptide containing the ADAM10/17 cleavage site
T4 peptide: SFEDAHVEHSISRSL

T5: His-tagged human TREM2 ECD (human, UniProt Q9NZC2 19-172)
T5 construct: Biacore and HDX say only recombinant human TREM2 (ECD); also called recombinant human TREM2; hTREM2
T5 sequence: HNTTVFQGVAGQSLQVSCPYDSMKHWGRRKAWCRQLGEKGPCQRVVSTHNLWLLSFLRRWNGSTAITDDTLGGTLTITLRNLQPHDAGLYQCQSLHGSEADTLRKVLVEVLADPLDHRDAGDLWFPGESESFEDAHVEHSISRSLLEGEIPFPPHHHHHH

B1: CL0020107 (antibody, V domains shown)
VH: QVQLQQPGAELVKPGASVKMSCRASGYTFTNYWISWVKQRPGQGLEWIGDIYPHSTSTNYNERFRSKATLTVDKSSTTAYMQLSSLTSEDSAVYYCAREGFGISAWGQGTTLTVSS
VL: QIVLTQSPAIMSASPGEKVTITCSATSSVSYMHWFQQKPGTSPKLWIYSTSNLASGVPARFSGSGSGTSHSLTISRMEAEDAATYYCQQRSSYPLTFGSGTKLELK
notes: also called Clone CL0020107
B2: CL0020188 (antibody, V domains shown)
VH: EVKLLDSGGGLVQAGGSLRLSCAGSGFTFTDFYMSWIRQPPGKAPEWLGVIRNKANGYTAGYNPSVKGRFTISRDNTQNILYLQMNTLRAEDTAIYYCARLTYGFDYWGQGVMVTVSS
VL: DIVMTQGALPNPVPSGESASITCQSSKSLLHSNGKTYLNWYLQRPGQSPQLLIYWMSTRASGVSDRFSGSGSGTDFTLKISSVEAEDVGVYYCQQFLEYPFTFGSGTKLEIK
notes: also called Clone CL0020188

Key:
[1] = biological target: T1, human TREM2 on the cell surface; test: cell binding, human macrophages, dose titration
[2] = biological target: T2, human TREM2 full length stalk region …; test: fluorescence polarization assay with TREM2 stalk peptide and ADAM17
Description: The ability of anti-TREM2 antibodies to inhibit TREM2 stalk peptide cleavage by ADAM17 was also analyzed using a fluorescence polarization assay. TREM2 stalk peptides were first prepared in assay buffer (25 mM Tris pH 7.5, 2.5 μM ZnCl₂, 0.005% Brij-35) with streptavidin. Anti-TREM2 antibodies were then pre-incubated with TREM2 stalk peptides for 30 minutes at room temperature. After the pre-incubation period, ADAM17 (R&D systems, Catalog No. 930-ADB) was added and incubated with the peptides for 20 hours at 37° C. The following day, samples were further diluted in assay buffer and transferred to a black opaque 384-well plate. Fluorescence polarization was subsequently measured on Perkin Elmer EnVision plate reader. The fluorescence polarization of TREM2 stalk peptides pre-incubated with anti-TREM2 antibody was compared to fluorescence polarization of full-length TREM2 stalk peptide and enzyme control (full-length TREM2 stalk peptide with ADAM17).

[3] = biological target: T3, mouse TREM2 full length stalk region …; test: ELISA on biotinylated peptide captured by streptavidin; A450 normalised to isotype control
In short: (§1)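 Sandwich ELISA: biotinylated TREM2 stalk peptides captured on streptavidin-coated plates, antibodies added for 1 h in 1% BSA/PBS, binding detected with anti-human kappa-HRP and TMB at A450. Values expressed as fold over isotype-control background.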

[4] = biological target: T2, human TREM2 full length stalk region …; test: as above
In short: as §1

[5] = biological target: T4, human TREM2 truncated stalk peptide (aa …); test: as above
In short: as §1

[6] = biological target: T1, human TREM2 on the cell surface; test: cell-based or functional assay
[7] = biological target: T6, recombinant cynomolgus TREM2 ECD (cynomolgus); test: SPR (Biacore), antibody captured via anti-human Fab, recombinant TREM2 ECD injected, 1:1 fit
T6 construct: extracellular domain; also called cyno TREM2
In short: (§2)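 Antibodies captured on a CM5 chip via anti-human Fab, then 3-fold serial dilutions of recombinant human or cynomolgus TREM2 ECD injected at 30 μL/min in HBS-EP+. Association 300 s, dissociation 600+ s, blank-cell subtracted; kon and koff from simultaneous 1:1 Langmuir fit.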

[8] = biological target: T5, His-tagged human TREM2 ECD; test: as above
In short: as §2

[9] = biological target: T5, His-tagged human TREM2 ECD; test: SPR (Biacore); Table 5 run, parent beside its humanized variants
[10] = biological target: T1, human TREM2 on the cell surface; test: flow cytometry, dose-titrated binding to HEK293-H6 cells

Binder	EC50 [1] [nM]	binding result [2]	fold over background (A450) [3] [fold]	fold over background (A450) [4] [fold]	fold over background (A450) [5] [fold]	NFAT EC50 (nM), plate coated mAb [6] [nM]	Survival EC50 (nM), plate coated mAb, human macrophages [6] [nM]	pSyk activation (human macrophages) EC50 (nM) [6] [nM]	Kd [7] [nM]	Kd [8] [nM]	Kd [9] [nM]	EC50 [10] [nM]
B1	4.4	no binding	1.3	1.7	1.4	10.9	0.53	28.5	104	1.47	–	–
B2	0.5	–	33	51	–	91.2	2.4	7.7	2	5.2	9.5	0.44

— patent publication US20220119522A1 (DENALI THERAPEUTICS, published 2022)
